Data: article PMC13477270 (Nature structural & molecular biology, 2025)

Target: the molecule itself
Assay: SEC-MALS

B1: miniTRIM37 RING–B-box-2–hcc B-box-2 mutant (other)
chain: MDEQSVESIAEVFRCFICMEKLRDARLCPHCSKLCCFSCIRRWLTEQRAQCPHCRAPLQLRELVNCRWAEEVTQQLDTLQLCSLTKHEENEKDKCENHHEKLSVFCWTCKKCICAQCAAWGGMHGGHTFKPLAEIYEQHVTKVNEEVAKLRRRLMELITERNQVAKRVPKAPPEEKEALIARGKALGEETELLESLLQEVEHQLRSCSKSELISKSSEILMMFQQVHRK
Q: For B1, which “stoichiometry N” value is on record?
A: 2
